# Measured values published in US20060240044A1.
# Target: human Vβ1.1 TcR (human)
# Experiment: cell-based or functional assay
substance,measurement,value
recombinant SPE-L,Percentage of Vβ enrichment (Vβ 1.1),8.44%
same,Vβ cDNA clones from toxin stimulated T cells identified as Vβ1.1,5 of 5 cDNAs
same,"stimulation of T cells carrying the Vβ1.1 TcR, against ConA (further results)",> 80 times
same,"stimulation of T cells carrying the Vβ1.1 TcR, against ConA (initial results)",> 50 times
recombinant SPE-M,Percentage of Vβ enrichment (Vβ 1.1),6.75%
same,Vβ cDNA clones from toxin stimulated T cells identified as Vβ1.1,4 of 5 cDNAs
same,"stimulation of T cells carrying the Vβ1.1 TcR, against ConA (further results)",70 times
same,"stimulation of T cells carrying the Vβ1.1 TcR, against ConA (initial results)",> 60 times
